Test results taken from patent publication US20240035010, “COMPOSITIONS COMPRISING A VARIANT POLYPEPTIDE AND USES THEREOF” (Arbor Biotechnologies, Inc., published 2024).
Positions count from the first letter of the chain named.

Assays:
[1] = target: T1, variant nuclease D590G combination (P14R, D32R, I61R, E311R, D590G); experiment: cell_activity; PAM 5'-TTTG-3'; conditions: tags: pcDNA3.1 expression
T1 chain: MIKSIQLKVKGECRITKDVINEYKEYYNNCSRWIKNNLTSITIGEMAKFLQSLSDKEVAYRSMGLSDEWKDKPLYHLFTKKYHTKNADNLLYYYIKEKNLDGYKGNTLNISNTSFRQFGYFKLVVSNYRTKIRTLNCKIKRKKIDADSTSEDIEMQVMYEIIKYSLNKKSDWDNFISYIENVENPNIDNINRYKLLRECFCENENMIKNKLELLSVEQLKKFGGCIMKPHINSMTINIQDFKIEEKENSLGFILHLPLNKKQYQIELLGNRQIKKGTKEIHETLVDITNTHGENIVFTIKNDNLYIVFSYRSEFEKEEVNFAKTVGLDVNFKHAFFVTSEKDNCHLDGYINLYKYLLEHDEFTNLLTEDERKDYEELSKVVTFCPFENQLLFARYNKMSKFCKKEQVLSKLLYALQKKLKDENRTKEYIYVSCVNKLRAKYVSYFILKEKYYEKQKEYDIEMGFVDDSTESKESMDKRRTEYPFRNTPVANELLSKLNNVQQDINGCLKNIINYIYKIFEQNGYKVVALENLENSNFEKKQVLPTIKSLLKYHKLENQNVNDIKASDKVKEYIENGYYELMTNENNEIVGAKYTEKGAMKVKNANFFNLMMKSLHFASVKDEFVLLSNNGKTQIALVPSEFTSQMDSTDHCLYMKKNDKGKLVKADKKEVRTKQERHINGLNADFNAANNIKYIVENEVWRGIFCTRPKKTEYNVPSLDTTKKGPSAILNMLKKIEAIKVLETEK
Procedure, shortened: (§1)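 HEK293T cells were lipofected with nuclease plasmid (pcDNA3.1 backbone) plus RNA guide plasmid, with guide omitted in negative controls. After ~72 h cells were lysed in QuickExtract and % indels were derived from NGS reads, averaged over two bioreplicates and two technical replicates.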

[2] = target: T2, variant nuclease T338G combination (P14R, D32R, I61R, E311R, T338G); experiment: cell_activity; PAM 5'-TTTG-3'; conditions: tags: pcDNA3.1 expression
T2 chain: T1 chain with T338G, G590D
Procedure, shortened: as §1

B1: AAVS1 crRNA ; AAVS1 target (ssRNA ; dsDNA)
RNA: CUUGUUGUAUAUGUCCUUUUAUAGGUAUUAAACAACUGAGAAUGGUGCGUCCUAGG
DNA 1: TGAGAATGGTGCGTCCTAGG
DNA 2: CCTAGGACGCACCATTCTCA
[1]
  indel activity: 5.96 fold of WT
[2]
  indel activity: 5.93 fold of WT
